These results are taken from publication PMC4644235 (Cell, 2015).

The chains are these.
T1: Sac3(222-572) (S. cerevisiae, UniProt P46674 222-572)
T1 sequence: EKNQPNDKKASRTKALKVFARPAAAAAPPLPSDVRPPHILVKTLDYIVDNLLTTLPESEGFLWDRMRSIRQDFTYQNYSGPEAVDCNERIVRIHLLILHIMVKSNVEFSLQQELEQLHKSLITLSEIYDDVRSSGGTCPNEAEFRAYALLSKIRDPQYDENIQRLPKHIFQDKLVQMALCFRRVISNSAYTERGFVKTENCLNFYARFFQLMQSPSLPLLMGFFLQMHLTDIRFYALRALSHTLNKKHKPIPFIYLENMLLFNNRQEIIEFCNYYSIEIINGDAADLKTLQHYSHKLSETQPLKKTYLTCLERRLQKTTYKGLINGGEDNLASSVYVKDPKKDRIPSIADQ

B1: Thp1(170-455) (domain or fragment)
chain: GKQRILLYLVNKLNNIYFRIESPQLCSNIFKNFQPKSMLAHFNEYQLDQQIEYRYLLGRYYLLNSQVHNAFVQFNEAFQSLLNLPLTNQAITRNGTRILNYMIPTGLILGKMVKWGPLRPFLSQETIDNWSVLYKHVRYGNIQGVSLWLRQNERHLCARQLLIVLLEKLPMVTYRNLIKTVIKSWTTEWGQNKLPYSLIERVLQLSIGPTFEDPGAQEITIYNGIHSPKNVENVLVTLINLGLLRANCFPQLQLCVVKKTTMIQEIVPPVNERITKMFPAHSHVLW
B2: Sem1 (natural protein)
chain: MSTDVAAAQAQSKIDLTKKKNEEINKKSLEEDDEFEDFPIDTWANGETIKSNAVTQTNIWEENWDDVEVDDDFTNELKAELDRYKRENQ

Test [1] concerns the target T1, Sac3(222-572). Description: crystal structure.
The target of test [2] is B1. Description: crystal structure.

In the case of B1, the binding result in test [1] is “binds”.
On to B2, for which the binding result in test [2] is reported as “binds”.
